How the values were obtained:
[1] = biological target: wild type human GM-CSF (human) (UniProt P04141); test: SPR (Biacore), human GM-CSF coated on CM5 chip, antibody injected
[2] = biological target: human GM-CSF mutant M5b (S96 to N110 replaced by murine sequence) (human); test: semi-quantitative ELISA; GM-CSF polypeptide coated in 2-fold dilutions (x axis = coating concentration), BD antibody fixed at 310 ng/ml, rabbit anti-rat IgG-HRP, absorbance 450 nm
[3] = biological target: human GM-CSF mutant M5 (I101 to V117 replaced by murine sequence) (human); test: as above
Sequence of human GM-CSF mutant M5 (I101 to V117 replaced by murine sequence) (human) (P04141 other isoform, or with tags, fused parts or gaps mutant): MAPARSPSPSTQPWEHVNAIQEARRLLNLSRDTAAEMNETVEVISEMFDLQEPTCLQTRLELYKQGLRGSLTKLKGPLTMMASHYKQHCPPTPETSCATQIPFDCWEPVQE

Sequence of wild type human GM-CSF (human) (P04141 other isoform, or with tags, fused parts or gaps limits assumed): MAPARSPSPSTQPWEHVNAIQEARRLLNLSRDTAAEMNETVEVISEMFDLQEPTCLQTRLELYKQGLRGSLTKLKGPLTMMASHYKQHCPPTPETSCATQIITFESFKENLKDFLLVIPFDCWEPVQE
Sequence of human GM-CSF mutant M5b (S96 to N110 replaced by murine sequence) (human) (P04141 other isoform, or with tags, fused parts or gaps mutant): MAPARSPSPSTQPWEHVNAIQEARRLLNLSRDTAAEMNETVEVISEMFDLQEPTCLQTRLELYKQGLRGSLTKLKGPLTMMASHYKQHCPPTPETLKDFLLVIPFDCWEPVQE

Which results are given for “commercially available rat anti-human GM-CSF antibody from BD Biosciences (Cat No. 554501)”?
Ka [1]: > 5.2e+09 M⁻¹; Kd [1]: < 0.19 nM; koff [1]: < 1e-05 s⁻¹; kon [1]: 52000 M⁻¹ s⁻¹; EC50 (read off the curve) [2]: 400 µg/mL; EC50 (read off the curve) [3]: 300 µg/mL
